T1: FcγRIIb extracellular domain with C-terminal His tag (human, UniProt P31994 43-217)
T1 construct: extracellular domain; also called FcgRIIb; 2b; not shown: His tag at the C terminus
T1 sequence (looked up): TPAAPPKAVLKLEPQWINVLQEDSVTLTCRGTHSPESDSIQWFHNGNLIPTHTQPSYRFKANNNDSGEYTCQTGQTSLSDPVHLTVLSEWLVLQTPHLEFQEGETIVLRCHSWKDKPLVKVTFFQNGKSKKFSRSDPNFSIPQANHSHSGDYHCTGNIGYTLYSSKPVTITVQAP


Tests used:
[1] = molecular target: T2, FcγRIIIa extracellular domain with C-terminal His tag (human, UniProt P08637 17-208); assay: SPR; He/Con_3a divided by He/Con_2b (binding to FcγRIIb is the reference)
T2 construct: extracellular domain; also called FcgRIIIa; 3a; not shown: His tag at the C terminus
T2 sequence (P08637 17-208): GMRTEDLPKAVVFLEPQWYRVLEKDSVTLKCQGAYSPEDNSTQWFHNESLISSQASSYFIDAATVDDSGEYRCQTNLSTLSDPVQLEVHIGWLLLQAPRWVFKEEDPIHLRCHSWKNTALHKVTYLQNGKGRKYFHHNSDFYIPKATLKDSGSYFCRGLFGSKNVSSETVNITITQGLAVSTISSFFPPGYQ
Method: (§1) Analysis of interaction between objective antibody and the FcγR was carried out using Biacore T100 (GE Healthcare). HBS-EP+ (GE Healthcare) was used as the running buffer, and the measurement temperature was set to 25° C. Chips produced by immobilizing the antigen peptide by the amine coupling method to a Series S Sencor Chip CM5 (GE Healthcare), or alternatively, chips produced by allowing preliminarily biotinylated antigen peptides to interact with and immobilize onto a Series S Sensor Chip SA (certified) (GE Healthcare) were used. Antibodies of interest were captured onto an antigen peptide-immobilized chip, and allowed to interact to each FcγR diluted with running buffer. To regenerate and repeatedly use the chip, the antibodies captured on the chip were washed off by reacting 10 mM glycine-HCl, pH 1.5.
(§2) The FcγR-binding activity of each antibody was assessed primarily using as an indicator the FcγR-binding activity and dissociation constant for FcγR.

[2] = molecular target: T2, FcγRIIIa extracellular domain with …; assay: SPR (Biacore), antibody captured on antigen peptide chip, FcγR as analyte; relative binding amount
Method: as §1, §2

[3] = molecular target: T1, FcγRIIb extracellular domain with …; assay: as above
Method: as §1, §2

Row | He_3a/2b (IIIa/IIb) [1] [ratio] | He/Con_3a [2] | He/Con_2b [3] | Binder
1 | 0.59 | 29.2 % of GpH7-A5/GpH7-B3/GpL16-k0 (=100) | 49.4 % of GpH7-A5/GpH7-B3/GpL16-k0 (=100) | GpH7-A5/GpH7-B3 variant S239_16H/GpL16-k0 (antibody, human IgG1, kappa, Heterodimerized anti-glypican-3 IgG1; the substitution stands in the GpH7-B3 chain only; also called He Ab) heavy 1: not shown heavy 2: not shown light: DIVMTQSPLSLPVTPGEPASISCQASESLVHSNRNTYLHWYLQKPGQSPQLLIYKVSNRFSGVPDRFSGSGSGTDFTLKISRVEAEDVGVYYCSQNTHVPPTFGQGTKVEIERTVAAPSVFIFPPSDEQLKSGTASVVCLLNNFYPREAKVQWKVDNALQSGNSQESVTEQDSKDSTYSLSSTLTLSKADYEKHKVYACEVTHQGLSSPVTKSFNRGEC
2 | 0.66 | 56.9 % of GpH7-A5/GpH7-B3/GpL16-k0 (=100) | 86.1 % of GpH7-A5/GpH7-B3/GpL16-k0 (=100) | GpH7-A5/GpH7-B3 variant S239_19Q/GpL16-k0 (antibody, human IgG1, kappa, Heterodimerized anti-glypican-3 IgG1; the substitution stands in the GpH7-B3 chain only; also called He Ab) heavy 1: not shown heavy 2: not shown light: DIVMTQSPLSLPVTPGEPASISCQASESLVHSNRNTYLHWYLQKPGQSPQLLIYKVSNRFSGVPDRFSGSGSGTDFTLKISRVEAEDVGVYYCSQNTHVPPTFGQGTKVEIERTVAAPSVFIFPPSDEQLKSGTASVVCLLNNFYPREAKVQWKVDNALQSGNSQESVTEQDSKDSTYSLSSTLTLSKADYEKHKVYACEVTHQGLSSPVTKSFNRGEC

From patent US20180155451A1 (published 2018)
